# In patent US20180037622A1:
# T1: Activin A (UniProt P08476)
# T1 sequence (looked up): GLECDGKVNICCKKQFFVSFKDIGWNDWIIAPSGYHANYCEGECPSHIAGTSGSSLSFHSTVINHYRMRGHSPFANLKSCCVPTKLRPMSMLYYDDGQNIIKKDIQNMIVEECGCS
# T2: Growth and Differentiation Factor-11 (GDF11) (UniProt O95390)
# T2 sequence (looked up): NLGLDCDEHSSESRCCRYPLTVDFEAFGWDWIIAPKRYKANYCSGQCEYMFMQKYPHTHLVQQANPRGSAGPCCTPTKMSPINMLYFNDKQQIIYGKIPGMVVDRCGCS
# B1: ActRIIB(20-128)-hFc (Fc fusion, not shown: a dimerising Fc or GST)
# chain: GRGEAETRECIYYNANWELERTNQSGLERCEGEQDKRLHCYASWRNSSGTIELVKKGCWLDDFNCYDRQECVATEENPQVYFCCCEGNFCNERFTHLPEAGGPEVTYEP
# B2: ActRIIB(20-131)-hFc (Fc fusion, not shown: a dimerising Fc or GST)
# chain: GRGEAETRECIYYNANWELERTNQSGLERCEGEQDKRLHCYASWRNSSGTIELVKKGCWLDDFNCYDRQECVATEENPQVYFCCCEGNFCNERFTHLPEAGGPEVTYEPPPT
# B3: ActRIIB-Fc A64 20-134 (Fc fusion, not shown: a dimerising Fc or GST)
# chain: GRGEAETRECIYYNANWELERTNQSGLERCEGEQDKRLHCYASWANSSGTIELVKKGCWLDDFNCYDRQECVATEENPQVYFCCCEGNFCNERFTHLPEAGGPEVTYEPPPTAPT
# B4: ActRIIB(20-132)-hFc (Fc fusion, not shown: a dimerising Fc or GST)
# chain: GRGEAETRECIYYNANWELERTNQSGLERCEGEQDKRLHCYASWRNSSGTIELVKKGCWLDDFNCYDRQECVATEENPQVYFCCCEGNFCNERFTHLPEAGGPEVTYEPPPTA
# B5: ActRIIB(21-131)-hFc (Fc fusion, not shown: a dimerising Fc or GST)
# chain: RGEAETRECIYYNANWELERTNQSGLERCEGEQDKRLHCYASWRNSSGTIELVKKGCWLDDFNCYDRQECVATEENPQVYFCCCEGNFCNERFTHLPEAGGPEVTYEPPPT
# B6: ActRIIB(22-131)-hFc (Fc fusion, not shown: a dimerising Fc or GST)
# chain: GEAETRECIYYNANWELERTNQSGLERCEGEQDKRLHCYASWRNSSGTIELVKKGCWLDDFNCYDRQECVATEENPQVYFCCCEGNFCNERFTHLPEAGGPEVTYEPPPT
# B7: ActRIIB(23-131)-hFc (Fc fusion, not shown: a dimerising Fc or GST)
# chain: EAETRECIYYNANWELERTNQSGLERCEGEQDKRLHCYASWRNSSGTIELVKKGCWLDDFNCYDRQECVATEENPQVYFCCCEGNFCNERFTHLPEAGGPEVTYEPPPT
# B8: ActRIIB(24-131)-hFc (Fc fusion, not shown: a dimerising Fc or GST)
# chain: AETRECIYYNANWELERTNQSGLERCEGEQDKRLHCYASWRNSSGTIELVKKGCWLDDFNCYDRQECVATEENPQVYFCCCEGNFCNERFTHLPEAGGPEVTYEPPPT
# Target: T1, Activin A
# Test: cell-based or functional assay
Binder,IC50 [µg/mL],Activin Inhibition Activity (KI) [nM]
B1,0.158,–
B2,0.044,–
B3,–,1000
B4,0.032,–

# Target: T2, Growth and Differentiation Factor-11 (GDF11)
# Test: cell-based or functional assay
Binder,IC50 [µg/mL],GDF11 Inhibition Activity (KI) [nM]
B1,0.13,–
B2,0.12,–
B3,–,1000
B4,0.087,–

# Target: T1, Activin A
# Test: cell-based or functional assay
# Remark: another data set of the same source
row,Binder,IC50 [µg/mL]
1,B2,0.201
2,B5,0.325
3,B6,0.1
4,B7,0.043
5,B8,0.105

# Target: T2, Growth and Differentiation Factor-11 (GDF11)
# Test: cell-based or functional assay
# Remark: another data set of the same source
row,Binder,IC50 [µg/mL]
1,B2,0.183
2,B5,0.121
3,B6,0.071
4,B7,0.06
5,B8,0.069
